Source: article PMC4163015 (Cell, 2014)

Target: T1, heterodimeric cofactor Ufd1p/Npl4p (S. cerevisiae, UniProt P53044 1-361; P33755 1-580)
T1 sequence (looked up) 1: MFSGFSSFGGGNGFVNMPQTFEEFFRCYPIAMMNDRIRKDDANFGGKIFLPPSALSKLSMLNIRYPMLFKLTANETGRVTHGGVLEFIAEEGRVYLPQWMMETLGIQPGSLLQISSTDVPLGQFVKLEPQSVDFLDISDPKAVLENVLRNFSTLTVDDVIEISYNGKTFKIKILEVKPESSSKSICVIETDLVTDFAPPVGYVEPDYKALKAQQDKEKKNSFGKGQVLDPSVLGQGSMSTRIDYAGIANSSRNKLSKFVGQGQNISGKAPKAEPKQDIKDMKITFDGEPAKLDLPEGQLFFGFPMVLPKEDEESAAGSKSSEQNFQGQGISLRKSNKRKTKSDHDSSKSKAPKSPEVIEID
T1 sequence (looked up) 2: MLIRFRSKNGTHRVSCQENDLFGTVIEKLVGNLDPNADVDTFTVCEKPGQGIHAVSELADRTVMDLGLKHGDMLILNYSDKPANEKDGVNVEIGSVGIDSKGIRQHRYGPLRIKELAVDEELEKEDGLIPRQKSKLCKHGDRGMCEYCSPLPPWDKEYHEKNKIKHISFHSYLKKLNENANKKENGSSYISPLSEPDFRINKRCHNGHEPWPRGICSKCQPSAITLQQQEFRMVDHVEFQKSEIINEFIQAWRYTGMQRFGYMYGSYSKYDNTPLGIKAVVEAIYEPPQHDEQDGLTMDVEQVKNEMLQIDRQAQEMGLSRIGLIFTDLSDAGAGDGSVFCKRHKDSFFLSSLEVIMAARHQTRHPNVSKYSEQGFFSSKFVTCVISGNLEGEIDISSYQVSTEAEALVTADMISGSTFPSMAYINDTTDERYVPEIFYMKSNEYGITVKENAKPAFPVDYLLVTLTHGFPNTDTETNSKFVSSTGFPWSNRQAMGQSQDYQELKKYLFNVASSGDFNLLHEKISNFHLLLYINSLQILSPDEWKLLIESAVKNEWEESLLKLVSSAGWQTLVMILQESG
Assay: SEC

binding result: binds
B1: Cdc48p ATPase (enzyme, S. cerevisiae, UniProt P25694 1-835, looked up)
chain: MGEEHKPLLDASGVDPREEDKTATAILRRKKKDNMLLVDDAINDDNSVIAINSNTMDKLELFRGDTVLVKGKKRKDTVLIVLIDDELEDGACRINRVVRNNLRIRLGDLVTIHPCPDIKYATRISVLPIADTIEGITGNLFDVFLKPYFVEAYRPVRKGDHFVVRGGMRQVEFKVVDVEPEEYAVVAQDTIIHWEGEPINREDEENNMNEVGYDDIGGCRKQMAQIREMVELPLRHPQLFKAIGIKPPRGVLMYGPPGTGKTLMARAVANETGAFFFLINGPEVMSKMAGESESNLRKAFEEAEKNAPAIIFIDEIDSIAPKRDKTNGEVERRVVSQLLTLMDGMKARSNVVVIAATNRPNSIDPALRRFGRFDREVDIGIPDATGRLEVLRIHTKNMKLADDVDLEALAAETHGYVGADIASLCSEAAMQQIREKMDLIDLDEDEIDAEVLDSLGVTMDNFRFALGNSNPSALRETVVESVNVTWDDVGGLDEIKEELKETVEYPVLHPDQYTKFGLSPSKGVLFYGPPGTGKTLLAKAVATEVSANFISVKGPELLSMWYGESESNIRDIFDKARAAAPTVVFLDELDSIAKARGGSLGDAGGASDRVVNQLLTEMDGMNAKKNVFVIGATNRPDQIDPAILRPGRLDQLIYVPLPDENARLSILNAQLRKTPLEPGLELTAIAKATQGFSGADLLYIVQRAAKYAIKDSIEAHRQHEAEKEVKVEGEDVEMTDEGAKAEQEPEVDPVPYITKEHFAEAMKTAKRSVSDAELRRYEAYSQQMKASRGQFSNFNFNDAPLGTTATDNANSNNSAPSGAGAAFGSNAEEDDDLYS
